Source: paper PMC8249388

What was measured:
[1] = biological target: T1, GST-Bicc1-KH (UniProt Q99MQ1); test: competition EMSA; conditions: 200 nM protein, 10 mM Tris-HCl pH 8, 100 mM KCl, 2.5 mM MgCl2, 2.5% glycerol, 1 mM DTT, 1 ug yeast tRNA in 20 uL, on ice 30 min, 1 pmol tagged RNA + 2.5 pmol DNA probe, 5% …
T1 sequence (Q99MQ1 whole entry, looked up): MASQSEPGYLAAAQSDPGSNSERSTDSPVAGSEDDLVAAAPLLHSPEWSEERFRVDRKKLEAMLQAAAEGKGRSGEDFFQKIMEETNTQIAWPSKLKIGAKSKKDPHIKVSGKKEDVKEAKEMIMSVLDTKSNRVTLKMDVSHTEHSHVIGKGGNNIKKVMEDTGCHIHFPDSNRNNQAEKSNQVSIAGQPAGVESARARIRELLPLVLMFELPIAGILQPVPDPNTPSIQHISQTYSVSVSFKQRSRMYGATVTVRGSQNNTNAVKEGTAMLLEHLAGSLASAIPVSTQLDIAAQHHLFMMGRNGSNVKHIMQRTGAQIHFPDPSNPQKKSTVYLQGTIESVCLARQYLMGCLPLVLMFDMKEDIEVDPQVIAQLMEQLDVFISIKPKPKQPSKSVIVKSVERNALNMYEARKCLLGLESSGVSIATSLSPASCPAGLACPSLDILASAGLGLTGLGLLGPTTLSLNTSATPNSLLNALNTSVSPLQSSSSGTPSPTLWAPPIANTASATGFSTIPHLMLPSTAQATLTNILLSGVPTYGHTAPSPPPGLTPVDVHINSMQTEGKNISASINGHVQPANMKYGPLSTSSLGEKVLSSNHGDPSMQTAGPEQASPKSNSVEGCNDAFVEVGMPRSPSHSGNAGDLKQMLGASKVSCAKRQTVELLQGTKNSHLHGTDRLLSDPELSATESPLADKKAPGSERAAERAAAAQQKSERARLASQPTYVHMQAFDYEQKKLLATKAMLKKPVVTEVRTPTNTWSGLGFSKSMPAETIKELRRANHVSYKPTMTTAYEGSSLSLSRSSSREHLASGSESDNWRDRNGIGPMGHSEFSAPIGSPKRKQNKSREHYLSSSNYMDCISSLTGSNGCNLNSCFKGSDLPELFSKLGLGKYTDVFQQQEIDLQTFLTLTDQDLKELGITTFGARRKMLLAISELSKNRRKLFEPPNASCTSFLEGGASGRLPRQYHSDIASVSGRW

[2] = biological target: T1, GST-Bicc1-KH; test: EMSA; conditions: RNP1; apparent Kd; yeast tRNA present; 10 mM Tris-HCl pH 8, 100 mM KCl, 2.5 mM MgCl2, 2.5% glycerol, 1 mM DTT, 1 ug yeast tRNA in 20 uL, on ice 30 min; 1 pmol tagged RNA + 2.5 pmol DNA probe; 5% …

GAAAAAGGUGACCUGAAUGAUGUGCAUCGGGUCAAGAGAGCAGAA [66-110 Mut1 (GACG to AAGG)]
IC50 ([1]; vs labelled 66-110): > 1000 nM

GAAAGACGUAAGCUGAAUGAUGUGCAUCGGGUCAAGAGAGCAGAA [66-110 Mut2 (UGAC to UAAG)]
IC50 ([1]; vs labelled 66-110): 654 nM

GAAAGACGUGACCUGAAUGAUGUGCAUCGGGUCAAGAGAGCAGAA [Dand5 3'-UTR 66-110 competitor]
IC50 ([1]; vs labelled 66-110): 203 nM

GAAAGACGUGACCUGAAUGAUGUGCAUCGGGUCAAGAGAGCAGAAUGUCUGGGCAACAGGCUCAGG / CTGAGCCTGTTGCCCAGAC [Dand5 3'-UTR 66-110 probe]
Kd [2]: 120 nM

GAAAGACGUGACCUGAAUGAUGUGCAUCGGGUCACGUCUUUCGAA [66-110 Stem+ (GACG masked in elongated stem)]
IC50 ([1]; vs labelled 66-110): > 1000 nM

GCUGAGCAUCCUAGAGGAAUGCGCAGGACAUGAAUGAACCUUGGCAAGAAGCAGGAGACGCAAUAGAAAGACGUGACCUGAAUGAUGUGCAUCGGGUCAAGAGAGCAGAAUUGGACAGGGCCAGAAUACUAGACAUGGUCCCCCAGUCAUGGGUUUAGACCACUAAUAGUCGUAGAAUGUGGGGCUAGGGUAUAACUCAGUGGGAGAGGGCUUGCCUAGCAUGCA [Dand5 3'-UTR 1-225 competitor]
IC50 ([1]; vs labelled 1-225): 283 nM

GCUGAGCAUCCUAGAGGAAUGCGCAGGACAUGAAUGAACCUUGGCAAGAAGCAGGAGACGCAAUAGAAAGACGUGACCUGAAUGAUGUGCAUCGGGUCAAGAGAGCAGAAUUGGACAGGGCCAGAAUACUAGACAUGGUCCCCCAGUCAUGGGUUUAGACCACUAAUAGUCGUAGAAUGUGGGGCUAGGGUAUAACUCAGUGGGAGAGGGCUUGCCUAGCAUGCAUGUCUGGGCAACAGGCUCAGG / CTGAGCCTGTTGCCCAGAC [Dand5 3'-UTR 1-225 probe]
Kd [2]: 233 nM

UGAACCUUGGCAAGAAGCAGGAGACGCAAUAGAAAGACGUGACCUGAAUGAUGUGCAUCGGGUCAAGAGAGCAGAAUUGGACAGGGCCAGAAUACUAGACAUGGUCCCCCAGUCAUGGGUUUA [Dand5 3'-UTR 35-157 competitor]
IC50 ([1]; vs labelled 35-157): 191 nM

UGAACCUUGGCAAGAAGCAGGAGACGCAAUAGAAAGACGUGACCUGAAUGAUGUGCAUCGGGUCAAGAGAGCAGAAUUGGACAGGGCCAGAAUACUAGACAUGGUCCCCCAGUCAUGGGUUUAUGUCUGGGCAACAGGCUCAGG / CTGAGCCTGTTGCCCAGAC [Dand5 3'-UTR 35-157 probe]
Kd [2]: 120 nM

UGAAGACGUGACUUCUAUUCGUAUGUGAUAUGUGGAGGUUAAAAA [226-270 8-mer (GCCCUGGG to GACGUGAC)]
IC50 ([1]; vs labelled 66-110): 392 nM

UGAAGCCCUGGGUUCUAUUCGUAUGUGAUAUGUGGAGGUUAAAAAAAGGUGAAAAUUAGCUAUAGUGUAUGAUUAGCCCUGUGUGAGAGGGAACAUUCAUGCCACAAUCACUAACUCACGUCCUCCUCAGGAAUCCUCAGCAGUCCCGCAAGGUAGAAUUUCACCAUGGGUCAUUUUACAGAUGAGGAAACCGAAGCUAU [Dand5 3'-UTR 226-425 (distal) competitor]
IC50 ([1]; vs labelled 1-225): > 1000 nM
